Laboratory results: patent US11214774B2, “PINK1 C-terminal domain polypeptide and methods using the same in cancer treatment” (National Taiwan University, priority 2015, dated 2022)
Values belong to the molecule of their own block, whether it stands above or below them.

Key:
EGFR = EGFR dimerization assay under PINK1-CTD overexpression; assay type: cell-based; conditions: CL1-5, PC9, H1975 and H3255 cells (FIG. 9A)
EGFR pathway = experiment: Immunoblotting of EGFR pathway under PINK1-CTD overexpression; assay type: cell-based
Excerpt: FIGS. 9A and 9B show hindrance of PINK1-CTD to EGFR dimerization and activation.
(§1) It was next investigated the in vivo tumor growth of PINK1-CTD stably expressing CL1-5, PC9, H1975 and H3255 cells. It has been shown that PINK1-CTD inhibits EGFR activation. It not only downregulates EGFR downstream signaling in EGFR-addicted PC9, H1975 and H3255 cells but also attenuates STATS-Y705 phosphorylation in EGFR non-addicted CL1-5 cells (FIGS. 9A and 9B). […] In addition, the synthetic polypeptide PINK1-CTD (Genmedkia Biotechnology Corp.) was used in mouse xenograft model. 2 μM of CTD polypeptide or R9 peptide (as control group) was injected into the mouse every day or every two days (as shown by arrow in FIGS. 11A and 11B).

[1] = tested on: CL1-5, PC9, H1975 and H3255 cells; experiment: Tumor xenografts of PINK1-CTD stably expressing lung cancer cells; assay type: in vivo; conditions: CL1-5, PC9, H1975 and H3255 xenografts (FIGS. 6B, 6E, 6H, 6K)
Excerpt: FIGS. 6A-6L show tumor xenografts of shPINK1, PINK1 and PINK1-CTD stably expressing lung cancer cells. FIGs. A, D, G and J: PINK1 overexpression aggravated tumor growth in CL1-5 cells but suppressed tumor growth in PC9, H1975 and H3255 cells; FIGs. B, E, H and K: PINK1-CTD overexpression inhibited tumor growth in all cells tested; FIGs. C, F, I and L: PINK1 knockdown inhibited tumor growth in CL1-5 cells but promoted tumor growth in PC9, H1975 and H3255 cells. N=7 in each group.
as §1

[2] = tested on: EGFR-TKD (amino acids 645-954); experiment: In vitro GST pull-down assay; assay type: binding; conditions: recombinant GST-fused PINK1-CTD incubated with purified His-tagged EGFR-TKD; anti-His immunoblot (FIG. 3E)
Excerpt: To dissect the interaction between PINK1 and EGFR, it was next investigated whether these two protein kinases interact directly and through which domains they interplay. It was established a flag-fused full-length EGFR construct, EGFR-flag, (amino acids 1-1210) and 8 serial truncated EGFR-flag constructs based on different EGFR functional domains (amino acids 1-378, 1-621, 1-644, 1-690, 1-954, 645-1210, 645-954, 955-1210) (FIG. 3A). Each of these 9 constructs was co-overexpressed with full-length PINK1 in HEK293 cells. The cell lysates were immunoprecipitated by anti-flag antibody and the immunoprecipitates were immunoblotted by PINK1 antibody. […] It was simultaneously established a myc-fused full-length PINK1 construct and another 7 truncated PINK1-myc constructs containing amino acids 1-509, 1-155, 156-509, 156-309, 310-428, 429-581 and 78-581, respectively (FIG. 3C). Each of these 8 constructs was co-transfected with full-length EGFR-flag in HEK293 cells. The cell lysates were immunoprecipitated by anti-myc antibody and immunoblotted with anti-flag antibody. […] Recombinant GST-fused PINK1-CTD (amino acids 510-581) and negative-control construct GST-fused PINK1310-428 (amino acids 310-428) were individually incubated with purified His-tagged EGFR-TKD (amino acids 645-954) and analyzed by immunoblotting with anti-His antibody (FIG. 3E). […]

EGFR (HER1) [3] = biological target: T1, EGFR (HER1) (Homo sapiens, UniProt P00533); experiment: EGFR (HER1) phosphorylation in lung cancer cells co-cultured with CTD polypeptide; assay type: cell-based; conditions: 2 μM, vs R9 control (FIG. 5A)
T1 construct: endogenous in cells; host or cells: CL1-5, HOP62, PC9, H1975 lung cancer cells
Excerpt: (§2) R9: a peptide consisting of 9 arginine residues.
(§3) To determine the interaction between PINK1-CTD and HER1 or HER2, PINK1-CTD polypeptide was co-cultured with CL1-5, HOP62, PC9 or H1975 cells. In this example, the used PINK1-CTD was synthesized from Genmedkia Biotechnology Corp., and it was conjugated with 9 arginine residues for membrane attaching and internalization. The group in which the cells were co-cultured with a peptide only having 9 arginine residues (R9) was used as control group.

EGFR (HER1) [4] = biological target: T2, EGFR (HER1) (Homo sapiens, UniProt P00533, L858R/T790M); experiment: as above; assay type: cell-based; conditions: H1975 cells; 2 μM; vs R9 control (FIG. 5A)
T2 construct: endogenous in cells; host or cells: CL1-5, HOP62, PC9, H1975 lung cancer cells
Excerpt: as §2, §3

EGFR (HER1) [5] = experiment: as above; assay type: cell-based; conditions: PC9 cells; 2 μM; vs R9 control (FIG. 5A)
Excerpt: as §2, §3

HER2 = biological target: T3, HER2 (Homo sapiens, UniProt P04626); experiment: HER2 phosphorylation in CL1-5 cells co-cultured with CTD polypeptide; assay type: cell-based; conditions: CL1-5 cell (FIG. 5B)
T3 construct: endogenous in cells; host or cells: CL1-5 cells
Excerpt: as §2, §3

CL1-5 [6] = experiment: CL1-5 lung cancer mouse xenograft model, CTD treatment; assay type: in vivo; conditions: CL1-5 xenograft; 2 μM injected every day or every two days; vs R9 (FIG. 11A)
Excerpt: as §2, §1

H1975 [7] = experiment: H1975 lung cancer mouse xenograft model, CTD treatment; assay type: in vivo; conditions: 2 μM injected every day or every two days, vs R9 (FIG. 11B)
Excerpt: as §2, §1

CL1-5 [8] = experiment: In vitro MTT assay, CL1-5; assay type: cell-based; conditions: 2 μM (FIG. 11C)
H1975 [9] = experiment: In vitro MTT assay, H1975; assay type: cell-based; conditions: 2 μM (FIG. 11C)
PC9 = experiment: In vitro MTT assay, PC9; assay type: cell-based; conditions: 2 μM (FIG. 11C)
Hop62 = experiment: In vitro MTT assay, Hop62; assay type: cell-based; conditions: 2 μM (FIG. 11C)

B1: PINK1-CTD: PINK1 C-terminal domain, amino acids 510 to 581 of PINK1 (SEQ ID NO: 1); overexpressed / stably expressed in cells (protein, listed as Homo sapiens)
chain: SLWGEHILALKNLKLDKMVGWLLQQSAATLLANRLTEKCCVETKMKMLFLANLECETLCQAALLLCSWRAAL
EGFR dimer to monomer ratio (EGFR): a decrease in EGFR dimer to monomer ratio
EGFR downstream signaling (EGFR pathway; EGFR-addicted PC9, H1975 and H3255 cells (FIG. 9B)): concurrently downregulated
phosphorylated EGFR-Y1068 to total EGFR ratio (EGFR pathway; all cells analyzed (FIG. 9B)): a decrease in phosphorylated EGFR-Y1068 to total EGFR ratio
STAT3-Y705 phosphorylation (EGFR pathway; wild-type EGFR CL1-5 cells (FIG. 9B)): only a decrease in STAT3-Y705 phosphorylation
in vivo tumor growth of PINK1-CTD stably expressing cells [1]: exerted inhibitory effects in all the cells tested

direct binding to EGFR-TKD [2]: directly bound to EGFR-TKD
B2: GST-fused PINK1-CTD: Recombinant GST-fused PINK1 C-terminal domain, amino acids 510-581 of PINK1 (protein)
chain: SLWGEHILALKNLKLDKMVGWLLQQSAATLLANRLTEKCCVETKMKMLFLANLECETLCQAALLLCSWRAAL
modifications: left off: a dimerising Fc or GST
notes: Recombinant GST-fused PINK1 C-terminal domain, amino acids 510-581 of PINK1

EGFR (HER1) phosphorylation (EGFR (HER1) [3]; CL1-5 cells): effectively inhibited
EGFR (HER1) phosphorylation (EGFR (HER1) [3]; HOP62 cells): effectively inhibited
EGFR (HER1) phosphorylation (EGFR (HER1) [4]): effectively inhibited
B3: CTD polypeptide: Synthesized PINK1-CTD (Genmedkia Biotechnology Corp.), conjugated with 9 arginine residues for membrane attaching and internalization (peptide)
peptide: SLWGEHILALKNLKLDKMVGWLLQQSAATLLANRLTEKCCVETKMKMLFLANLECETLCQAALLLCSWRAALRRRRRRRRR
EGFR (HER1) phosphorylation (EGFR (HER1) [5]): effectively inhibited
HER2 phosphorylation (HER2): inhibited HER2 phosphorylation in CL1-5 cell in a dose-dependent manner
in vivo tumor growth (CL1-5 [6]): inhibited in vivo tumor growth
in vivo tumor growth (H1975 [7]): inhibited in vivo tumor growth
cell viability (MTT) (CL1-5 [8]): reduced
cell viability (MTT) (H1975 [9]): reduced
cell viability (MTT) (PC9): reduced
cell viability (MTT) (Hop62): reduced
